Article doi:10.1101/2023.04.01.535202, “Three small partner proteins facilitate the type VII-dependent secretion export of an antibacterial nuclease” (bioRxiv, 2023)

Target: the molecule itself
Test: cross-linking; purified complex from the major SEC peak at 0.5 mg/ml in 50 mM HEPES pH 7.5, 150 mM NaCl, 0.1% glutaraldehyde for 30 minutes at room temperature, quenched with tris; SEC and SDS-PAGE

B1: EsaDEG complex (complex)
chain 1: MTKDIEYLTADYDNEKSSIQSVIDAIEGQDFLDVDTTMDDAVSDVSSLDEDGAISLTSSVVGPQGSKLMGYYQNELYDYASQLDSKMKEIIDTPFIEDIDKAFKGITNVKLENILIKNGGGHGRDTYGASGKIAKGDAKKSDSDVYSIDEILKSDQEFVKVIDQHYKEMKKEDKKLSKSDFEKMMTQGASCDYMTVAEAEELEEQKKKEEAIEIAALAGMVVLSCINPVAGAVAIGAYSAYSAANAATGKNIVTGRKLSKEERIMEGLSLIPLPGMGFLKGAGKSLMKLGFKGGEKFAVKTGLQKTMQQAVSRISPKMGMMKNSVLNQSRNFAQNTHVGQMLSNMRGQATHTVQQSRNWIGQQAQNVKRIVNNGLDKEIAHPFKQQLAPAGMGGIKFAETTTLRNMGQNIKRAVTPQNHVTHGPKDSMVRSEGKHSISSHEMNSSKYVESPNYTKVEFGEHYARLRPKKLKANIEYTTPTGHIYRTDHKGRIKEVYVDNLSLKDGDRNSHAQRTVGGEDRLPDDDGGALIARMFGGSKDIDNLVAQSKFINRPFKEKGHWYNLEKEWQEFLNSGKEVKNIKMEVKYSGNSQRPTIFKVEYEINGERNIRRILNK
chain 2: MKDVKRIDYFSYEELTILGGSKLPLVNFELFDPSNFEEAKAALIEKELVTENDKLTDAGFKVATLVREYISAIVNIRINDMYFAPFSYEKDEYILLSRFKNNGFQIRIINKDIAWWSIVQSYPLLMRQEKSNDWDFKQIDDETLENLNNESIDTIGRVLEIEIYNHQGDPQQSLYNIYEQNDLLFIRYPLKDKVLNVHIGVINTFIRELFGFDTDENHINKAEE
chain 3: MTFEEKLSKIYNEIANEISSMIPVEWEKVYTMAYIDDGGGEVFFNYTKPGSDDLNYYTNIPKEYNISVQVFDDLWMDLYDLFEELRDLFKEEDLEPWTSCEFDFTREGELKVSFDYIDWINSEFGQIGRQNYYKYRKFGILPETEYEINKVKEIEQYIKELEE
notes: EsaD nuclease toxin of S. aureus, as m1; EsaE of S. aureus, as m2; EsaG of S. aureus, as m3; Cross-linked with glutaraldehyde for the experiment on dimers-of-trimers and for cryo-EM; also called EsaDEG trimer; not shown: His6, C-terminal, kept; copies: + +
stoichiometry N: 2

B2: EsaDEG-EsxBCD complex (complex)
chain 1: MTKDIEYLTADYDNEKSSIQSVIDAIEGQDFLDVDTTMDDAVSDVSSLDEDGAISLTSSVVGPQGSKLMGYYQNELYDYASQLDSKMKEIIDTPFIEDIDKAFKGITNVKLENILIKNGGGHGRDTYGASGKIAKGDAKKSDSDVYSIDEILKSDQEFVKVIDQHYKEMKKEDKKLSKSDFEKMMTQGASCDYMTVAEAEELEEQKKKEEAIEIAALAGMVVLSCINPVAGAVAIGAYSAYSAANAATGKNIVTGRKLSKEERIMEGLSLIPLPGMGFLKGAGKSLMKLGFKGGEKFAVKTGLQKTMQQAVSRISPKMGMMKNSVLNQSRNFAQNTHVGQMLSNMRGQATHTVQQSRNWIGQQAQNVKRIVNNGLDKEIAHPFKQQLAPAGMGGIKFAETTTLRNMGQNIKRAVTPQNHVTHGPKDSMVRSEGKHSISSHEMNSSKYVESPNYTKVEFGEHYARLRPKKLKANIEYTTPTGHIYRTDHKGRIKEVYVDNLSLKDGDRNSHAQRTVGGEDRLPDDDGGALIARMFGGSKDIDNLVAQSKFINRPFKEKGHWYNLEKEWQEFLNSGKEVKNIKMEVKYSGNSQRPTIFKVEYEINGERNIRRILNK
chain 2: MKDVKRIDYFSYEELTILGGSKLPLVNFELFDPSNFEEAKAALIEKELVTENDKLTDAGFKVATLVREYISAIVNIRINDMYFAPFSYEKDEYILLSRFKNNGFQIRIINKDIAWWSIVQSYPLLMRQEKSNDWDFKQIDDETLENLNNESIDTIGRVLEIEIYNHQGDPQQSLYNIYEQNDLLFIRYPLKDKVLNVHIGVINTFIRELFGFDTDENHINKAEE
chain 3: MTFEEKLSKIYNEIANEISSMIPVEWEKVYTMAYIDDGGGEVFFNYTKPGSDDLNYYTNIPKEYNISVQVFDDLWMDLYDLFEELRDLFKEEDLEPWTSCEFDFTREGELKVSFDYIDWINSEFGQIGRQNYYKYRKFGILPETEYEINKVKEIEQYIKELEE
chain 4: MGGYKGIKADGGKVDQAKQLAAKTAKDIEACQKQTQQLAEYIEGSDWEGQFANKVKDVLLIMAKFQEELVQPMADHQKAIDNLSQNLAKYDTLSIKQGLDRVNP
chain 5: MNFNDIETMVKSKFKDIKKHAEEIAHEIEVRSGYLRKAEQYKRLEFNLSFALDDIESTAKDVQTAKSSANKDSVTVKGKAPNTLYIEKRNLMKQKLEMLGEDIDKNKESLQKAKEIAGEKASEYFNKAMN
chain 6: MTLSGKISVKAETIAHVVKELESISQKYDEIAQNFGKIAQLNYYSSEKAAHSMENGYSSAATVISGLKGPLSTLGGGVMNSAQKFFEADEHWGTEFAKLYYNIEG
notes: EsaD nuclease toxin of S. aureus, as m1; EsaE of S. aureus, as m2; EsaG of S. aureus, as m3; EsxB of S. aureus, as m4; EsxC of S. aureus, as m5; EsxD of S. aureus, as m6; Cross-linked with glutaraldehyde for the experiment on dimers-of-hexamers and for cryo-EM; also called EsaDEG-EsxBCD hexamer; EsxBCD-EsaDEG complex; not shown: His6, C-terminal, kept; twin-strep, C-terminal, kept; copies: + + + …
stoichiometry N: 2
